Assay results as given in article doi:10.1101/2020.04.23.053322.
Like-named read-outs stand apart in the source and are kept apart here.

How the values were obtained:
[1] = molecular target: ATF6-CFP (human ATF6 fused to mCerulean on the C-terminal side) (human) (UniProt P18850); assay: FRET or BRET
[2] = molecular target: ATF6-CFP (human ATF6 fused to mCerulean on the C-terminal side) (human) (UniProt P18850); assay: FRET or BRET; remark: listed apart in the source

UniProt P18850, sequence (P18850 whole entry, the tested form may be a part): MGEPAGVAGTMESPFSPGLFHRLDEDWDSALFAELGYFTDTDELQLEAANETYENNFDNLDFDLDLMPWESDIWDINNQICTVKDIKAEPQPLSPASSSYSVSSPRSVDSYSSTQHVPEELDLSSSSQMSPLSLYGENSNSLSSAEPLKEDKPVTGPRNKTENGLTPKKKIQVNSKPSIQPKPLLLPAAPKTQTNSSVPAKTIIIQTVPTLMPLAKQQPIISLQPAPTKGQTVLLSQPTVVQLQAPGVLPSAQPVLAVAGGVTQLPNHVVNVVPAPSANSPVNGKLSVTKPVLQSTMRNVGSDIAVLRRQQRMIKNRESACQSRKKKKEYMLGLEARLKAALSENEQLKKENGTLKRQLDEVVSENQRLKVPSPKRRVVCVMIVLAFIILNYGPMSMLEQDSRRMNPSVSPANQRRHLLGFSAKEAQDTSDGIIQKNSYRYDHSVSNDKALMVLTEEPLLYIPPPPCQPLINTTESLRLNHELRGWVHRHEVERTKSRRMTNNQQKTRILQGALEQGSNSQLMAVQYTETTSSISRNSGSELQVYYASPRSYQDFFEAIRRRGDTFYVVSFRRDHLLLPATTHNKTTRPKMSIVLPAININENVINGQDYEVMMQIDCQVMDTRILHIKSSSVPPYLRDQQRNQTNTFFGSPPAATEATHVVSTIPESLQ

mVenus-tagged sorcin (YFP-SRI) (from UniProt P30626 1-198) (natural protein)
FRET efficiency [1]: 11.4% | FRET efficiency [2]: 11.7%
